Source: US20240150473A1 (SURROZEN OPERATING, published 2024)

B1: VHH26 (parental) (VHH)
VHH: DVQLVESGGGLVQAGGSLRLACAGSGRIFAIYDIAWYRHPPGNQRELVAMIRPVVTEIDYADSVKGRFTISRNNAMKTVYLQMNNLKPEDTAVYYCNAKRPWGSRDEYWGQGTQVTVSS
notes: Expressed in Expi293 cells with a C-terminal hexa-histidine tag; also called VHH26_His; parental VHH26
B2: R2M13 IgG (the Fzd5,8 binder IgG of R2M13-26) (antibody, V domains shown)
VH: EVQLLQSGAEVKKPGSSVKVSCKASGGTFTYRYLHWVRQAPGQGLEWMGGIIPIFGTGNYAQKFQGRVTITADESTSTAYMELSSLRSEDTAVYYCASSMVRVPYYYGMDVWGQGTLVTVSS
VL: not shown
notes: also called R2M13 antibody

Legend:
biotinylated LRP6E3E4 [1] = molecular target: T1, biotinylated LRP6E3E4 (UniProt O75581 631-1246, limits assumed, biotinylated (site not stated)); assay: BLI (Octet Red 96), biotinylated LRP6E3E4 on streptavidin sensor, 1:1 fit; SEC fraction D3 (first block)
T1 construct: domain: E3E4; also called Lrp6E3E4 domain; Lrp6 receptor
T1 sequence (looked up): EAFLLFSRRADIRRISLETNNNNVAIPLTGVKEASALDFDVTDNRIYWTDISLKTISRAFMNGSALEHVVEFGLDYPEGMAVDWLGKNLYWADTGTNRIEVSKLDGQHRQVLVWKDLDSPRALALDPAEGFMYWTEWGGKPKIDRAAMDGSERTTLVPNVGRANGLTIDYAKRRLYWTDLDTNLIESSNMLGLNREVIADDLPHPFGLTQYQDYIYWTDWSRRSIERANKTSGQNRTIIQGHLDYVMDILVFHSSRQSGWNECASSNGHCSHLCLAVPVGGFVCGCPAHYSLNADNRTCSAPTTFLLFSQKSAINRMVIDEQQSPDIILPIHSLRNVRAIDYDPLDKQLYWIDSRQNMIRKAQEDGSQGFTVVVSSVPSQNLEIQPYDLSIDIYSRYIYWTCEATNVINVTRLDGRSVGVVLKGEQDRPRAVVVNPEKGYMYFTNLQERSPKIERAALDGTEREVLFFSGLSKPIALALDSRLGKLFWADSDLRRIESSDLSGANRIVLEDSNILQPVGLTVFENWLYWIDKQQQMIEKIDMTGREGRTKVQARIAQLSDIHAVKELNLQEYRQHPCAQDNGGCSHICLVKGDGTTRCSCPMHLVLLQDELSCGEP
Description: (§1) Proteins were purified using His-Complete resin (Roche, USA) following standard procedures. Expression levels and homogeneity of VHH26 and its humanized variants were analyzed by SDS-PAGE and SEC (size-exclusion chromatography). […] Biotinylated LRP6E3E4 diluted to 50 nM in the running buffer (PBS, 0.05% Tween-20, 0.5% BSA, pH 7.2) were captured to the SA biosensor followed by dipping into wells containing the indicated VHH26 proteins at different concentrations in running buffer or into a well with only running buffer as a reference channel. KD for each binder was calculated by Octet System software, based on fitting to a 1:1 binding model. Kinetics values (Kon, Koff, KD) from each experiment was calculated from seven technical replicates of different concentrations of the molecule tested with Octet Data Analysis 9.0 (PALL ForteBio, Fremont, CA).
(§2) Central fractions of each of these peaks were examined by Octect-BLI for their ability interact with Lrp6. Kinetics parameters such as kon, koff, and KD for interaction between VHH26 constructs and Lrp6E3E4 domain are listed in Table 2.

biotinylated LRP6E3E4 [2] = molecular target: T1, biotinylated LRP6E3E4; assay: BLI (Octet Red 96), biotinylated LRP6E3E4 on streptavidin sensor, 1:1 fit; SEC fraction D3 (second block)
Description: as §1, §2

Fzd8 CRD (biotinylated) = molecular target: T2, Fzd8 CRD (biotinylated) (UniProt Q9H461 28-155, limits assumed, biotinylated (site not stated)); assay: BLI (Octet Red 96), biotinylated Fzd8 CRD captured on SA biosensor, R2M13 as analyte at several concentrations, 1:1 fit; the legend paragraph 33 says IgG, the methods paragraph 311 say R2M13 Fab
T2 construct: domain: CRD
T2 sequence (looked up): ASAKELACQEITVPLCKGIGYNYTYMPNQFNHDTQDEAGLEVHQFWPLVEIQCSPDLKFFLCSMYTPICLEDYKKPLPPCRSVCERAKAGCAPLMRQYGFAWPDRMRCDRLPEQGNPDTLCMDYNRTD
Description: (§3) Biotinylated CRDs of Fzds diluted to 25 nM in the running buffer (PBS, 0.05% Tween-20, 0.5% BSA, pH 7.2) were captured to the SA biosensor followed by dipping into wells containing the R2M13 Fab protein at different concentrations in running buffer or into a well with only running buffer as a reference channel. KD for each binder was calculated by Octet System software, based on fitting to a 1:1 binding model. Binding specificities of R2M13 IgG to 10 Fzds were also examined by the BLI assay. Biotinylated Fzd CRDs (H. Chen, Lu, Lee, & Li, 2020) diluted to 50 nM in the running buffer were captured to the SA biosensor followed by dipping into wells containing R2M13 IgG at 200 nM in running buffer.

Fzd5 CRD (biotinylated) = molecular target: T3, Fzd5 CRD (biotinylated) (UniProt Q13467 27-155, limits assumed, biotinylated (site not stated)); assay: BLI (Octet Red 96), biotinylated Fzd5 CRD captured on SA biosensor, R2M13 as analyte at several concentrations, 1:1 fit; the legend paragraph 32 says IgG, the methods paragraph 311 say R2M13 Fab
T3 construct: domain: CRD
T3 sequence (looked up): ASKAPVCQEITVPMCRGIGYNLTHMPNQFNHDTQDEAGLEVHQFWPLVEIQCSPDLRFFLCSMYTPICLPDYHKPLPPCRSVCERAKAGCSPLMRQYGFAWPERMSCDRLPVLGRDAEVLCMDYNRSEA
Description: as §3

Binder | Kd (biotinylated LRP6E3E4 [1]) [nM] | Kd (biotinylated LRP6E3E4 [2]) [nM] | Kd (Fzd8 CRD (biotinylated)) [nM] | Kd (Fzd5 CRD (biotinylated)) [nM]
B1 | 17 | 22 |  | 
B2 |  |  | 98.5 | 57.5
